The target in assay [1] is CEACAM5 coated on M270-carboxy Dynabeads (UniProt P06731). Nature of the assay: IRF assay on CEACAM5-coated M270-carboxy Dynabeads, 100 µg beads.
Assay [2] has the same target. Nature of the assay: IRF assay on CEACAM5-coated M270-carboxy Dynabeads, 333 µg beads.
Assay [3] has the same target. Nature of the assay: IRF assay on CEACAM5-coated M270-carboxy Dynabeads, 33 µg beads.
For assay [4], the target named is human recombinant DLL3 antigen (human) (UniProt Q9NYJ7). Nature of the assay: IRF assay on recombinant human DLL3 coated M-270-carboxy Dynabeads, 10 µg beads.

This note sets out measurements from patent publication EP4552657A1, “RADIOPHARMACEUTICAL COMPLEXES AND COMBINATIONS” (priority 2023, dated 2025).

CEACAM5 coated on M270-carboxy Dynabeads, sequence (P06731 35-685 limits assumed): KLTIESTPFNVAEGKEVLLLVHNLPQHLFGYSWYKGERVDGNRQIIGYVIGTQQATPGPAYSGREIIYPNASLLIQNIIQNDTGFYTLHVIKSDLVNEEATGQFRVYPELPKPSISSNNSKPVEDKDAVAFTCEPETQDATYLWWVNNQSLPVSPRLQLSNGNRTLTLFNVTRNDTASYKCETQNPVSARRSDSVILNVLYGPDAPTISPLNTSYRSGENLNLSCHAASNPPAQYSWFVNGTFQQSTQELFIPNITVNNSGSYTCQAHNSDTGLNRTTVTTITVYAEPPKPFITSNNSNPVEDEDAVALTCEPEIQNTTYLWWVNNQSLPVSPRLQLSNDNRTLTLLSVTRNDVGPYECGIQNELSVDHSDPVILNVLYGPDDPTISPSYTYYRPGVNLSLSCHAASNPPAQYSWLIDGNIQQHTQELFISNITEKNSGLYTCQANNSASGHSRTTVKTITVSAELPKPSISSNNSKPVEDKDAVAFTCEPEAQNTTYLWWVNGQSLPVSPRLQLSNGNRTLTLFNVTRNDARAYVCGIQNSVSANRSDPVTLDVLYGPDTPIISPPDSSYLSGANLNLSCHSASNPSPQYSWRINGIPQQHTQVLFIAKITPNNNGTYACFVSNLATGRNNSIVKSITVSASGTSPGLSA
human recombinant DLL3 antigen (human), sequence (Q9NYJ7 27-492 limits assumed): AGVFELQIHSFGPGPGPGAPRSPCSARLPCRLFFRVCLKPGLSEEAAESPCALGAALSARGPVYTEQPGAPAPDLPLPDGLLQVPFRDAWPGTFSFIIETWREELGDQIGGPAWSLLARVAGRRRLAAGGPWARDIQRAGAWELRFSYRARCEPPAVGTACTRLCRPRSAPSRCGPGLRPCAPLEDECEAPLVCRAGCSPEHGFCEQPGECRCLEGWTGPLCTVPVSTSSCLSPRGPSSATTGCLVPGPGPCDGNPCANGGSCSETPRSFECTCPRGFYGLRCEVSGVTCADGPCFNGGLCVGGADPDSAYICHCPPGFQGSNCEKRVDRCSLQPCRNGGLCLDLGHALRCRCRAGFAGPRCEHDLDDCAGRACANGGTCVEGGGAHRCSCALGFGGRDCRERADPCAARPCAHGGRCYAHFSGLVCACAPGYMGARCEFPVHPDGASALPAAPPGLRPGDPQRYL

As to Ac-225-macropa-Labetuzumab (antibody), the IRF (immunoreactive fraction) in assay [1] was determined as 88%; in assay [2], 97%; in assay [3], 43%.
On to “Ac-225-macropa-Rovalpituzumab (antibody)”, for which, in assay [4], the maximum binding (IRF) was 86%.
